Assay results as given in patent US20220387586A1 (Hoffmann-La Roche, published 2022).
Where a chain is given by its changes, count along the chain named.

T1: LAG3 on cells (recombinant CHO cells expressing Lag3) (human, UniProt P18627 29-525)
T1 construct: The cell ELISA paragraphs say only 'Lag3'; also called CHO-LAG3; Lag3 cells
T1 sequence: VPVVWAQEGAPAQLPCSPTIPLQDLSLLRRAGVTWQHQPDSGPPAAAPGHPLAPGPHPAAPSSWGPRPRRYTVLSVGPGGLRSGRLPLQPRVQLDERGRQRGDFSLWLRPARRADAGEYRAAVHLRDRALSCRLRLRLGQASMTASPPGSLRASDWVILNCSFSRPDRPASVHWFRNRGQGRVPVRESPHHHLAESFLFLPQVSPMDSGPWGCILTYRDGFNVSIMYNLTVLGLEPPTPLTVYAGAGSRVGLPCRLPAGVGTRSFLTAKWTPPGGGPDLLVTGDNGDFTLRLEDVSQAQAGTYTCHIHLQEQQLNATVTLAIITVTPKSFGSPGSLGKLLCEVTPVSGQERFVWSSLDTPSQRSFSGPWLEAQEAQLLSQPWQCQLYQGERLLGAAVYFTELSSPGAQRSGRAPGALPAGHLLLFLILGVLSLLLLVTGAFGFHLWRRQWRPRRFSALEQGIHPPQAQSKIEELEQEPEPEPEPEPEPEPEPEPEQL

T2: biotinylated-Lag3 (UniProt P18627 23-450, limits assumed, biotinylated)
T2 construct: Probably a human LAG3 ECD construct; also called Lag3 (MHCII/ELISA)
T2 sequence (looked up): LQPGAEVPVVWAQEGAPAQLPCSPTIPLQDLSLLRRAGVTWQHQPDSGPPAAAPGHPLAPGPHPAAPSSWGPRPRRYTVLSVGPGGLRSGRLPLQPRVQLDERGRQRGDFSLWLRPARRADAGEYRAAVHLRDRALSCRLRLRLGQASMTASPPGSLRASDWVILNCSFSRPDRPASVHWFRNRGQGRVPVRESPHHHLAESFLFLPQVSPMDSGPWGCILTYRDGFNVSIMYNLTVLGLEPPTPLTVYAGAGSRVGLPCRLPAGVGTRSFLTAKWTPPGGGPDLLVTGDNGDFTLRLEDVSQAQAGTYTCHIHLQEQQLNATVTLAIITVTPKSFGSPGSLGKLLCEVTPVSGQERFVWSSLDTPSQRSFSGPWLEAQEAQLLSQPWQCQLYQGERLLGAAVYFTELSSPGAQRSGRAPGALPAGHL

T3: human Fc tagged human Lag3 extra cellular domain (human, UniProt P18627 29-450, biotinylated in the epitope binning, the SA CAP SPR and the FACS competition assay)
T3 construct: In-house fusion; also called huLag3-Fc; biotinylated, huFc-tagged huLag3; not shown: human Fc tag
T3 sequence: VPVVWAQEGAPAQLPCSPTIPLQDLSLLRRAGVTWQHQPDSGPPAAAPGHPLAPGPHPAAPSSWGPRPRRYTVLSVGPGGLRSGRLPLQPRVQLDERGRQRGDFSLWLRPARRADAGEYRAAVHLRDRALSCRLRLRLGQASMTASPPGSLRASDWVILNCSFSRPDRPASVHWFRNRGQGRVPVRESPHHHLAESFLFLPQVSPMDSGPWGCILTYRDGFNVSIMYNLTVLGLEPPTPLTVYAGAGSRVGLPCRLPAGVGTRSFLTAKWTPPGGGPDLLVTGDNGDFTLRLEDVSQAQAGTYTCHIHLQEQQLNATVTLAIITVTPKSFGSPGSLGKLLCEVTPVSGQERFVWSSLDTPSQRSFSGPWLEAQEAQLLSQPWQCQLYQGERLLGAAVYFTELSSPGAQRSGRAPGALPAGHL

B1: aLAG3(0403) (antibody, V domains shown)
VH: EVQLLESGGGLVQPGGSLRLSCAASGFTFDDYTMHWVRQAPGKGLEWVSLVSWDGGGTYYTNSVKGRFTISRDNSKNTLYLQMNSLRAEDTAVYFCAKAITDTSLYGYDYWGQGILVTVSS
VL: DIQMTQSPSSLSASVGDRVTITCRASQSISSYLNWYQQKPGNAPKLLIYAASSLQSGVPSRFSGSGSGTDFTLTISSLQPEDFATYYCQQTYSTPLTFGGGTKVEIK
B2: aLAG3(0414) (antibody, V domains shown)
VH: EVQLLESGGGLVQPGGSLRLSCAASGFIFDDYTMNWVRQAPGKGLEWVAVISWDGGGTYYTDSVKGRFTISRDDFKNTLYLQMNSLRAEDTAVYYCAKGLTDTTLYGSDYWGQGTLVTVSS
VL: DIQMTQSPSSLSASVGDRVTITCRASQSISSYLNWYQQKPGKAPKLLIYAASTLQSGVPSRFSGSGSGTDFTLTISSLQPEDFATYYCQQTYSSPLTFGGGTKVEIKG
B3: aLAG3(0411) (antibody, V domains shown)
VH: B2 VH with Q3H, F29V, A49S, G57A, T61A, T103D
VL: DIQMTQSPSSLSASVGDRVTITCRASQSIVSYLNWYQQKPGKAPKLLIYASSSLQSGVPSRFSGSGSGTDFTLTISSLQPEDFATYYCQQTYSTPLTFGGGTKVEIK
notes: also called aLAG3 (411)
B4: aLAG3(0416) (antibody, V domains shown)
VH: EVQLVESGGGLVQPGGSLRLACAASGFTFSDYAMSWVRQAPGKGLEWVSGIDNSGYYTYYTDSVKGRFTISRDDVKNTLYLQMNSLRAEDTAVYLCTKTHSGLIVNDAFDIWGQGTMVTVSS
VL: B2 VL with M4L, A50D, T53S, Q55E, F71A, T91S, S94T
B5: aLAG3(0417) (antibody, V domains shown)
VH: B4 VH
VL: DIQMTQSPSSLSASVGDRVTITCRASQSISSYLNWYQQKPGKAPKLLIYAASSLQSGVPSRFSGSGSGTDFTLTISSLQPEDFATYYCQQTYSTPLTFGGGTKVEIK
notes: also called aLAG3 (417)

What was measured:
[1] = target: T1, LAG3 on cells (recombinant CHO cells …); assay: cell ELISA on recombinant CHO cells expressing Lag3
Description: After washing (1×90 μl in PBST) cells were fixed by addition of 30 μl/well glutaraldehyde to a final concentration of 0.05% (Sigma Cat.No: G5882), 10 min at room temperature. After washing (3×90 μl/well with PBST-buffer) 25 μl/well goat anti-Human Ig κ chain antibody-HRP conjugate (Milipore, AP502P) was added in a 1:1000 dilution and incubated at RT for 1 h. After washing (3×90 μl/well with PBST-buffer) 25 μl/well TMB substrate (Roche, 11835033001) was added and incubated for 6-10 min. Measurement took place on a Tecan Safire 2 instrument at 370/492 nm.

cynomolgus LAG3 on cells [2] = target: T4, cynomolgus LAG3 on cells (cynomolgus); assay: flow cytometry on HEK293F cells transfected with cyno-LAG-3, antibody 10 µg/ml
T4 construct: whole, on cells; also called cyno-LAG-3; cynoLAG3
Description: 1.5×10⁵ cells/well were seeded into 96-well plates. […] HEK cells were incubated with indicated antibodies for 45 min on ice, washed twice with 200 μl ice-cold PBS buffer containing 2% FBS, before secondary antibody (APC-labelled goat anti-human IgG-kappa, Invitrogen, cat.no. #MH10515) was added (1:50 diluted in FACS-Puffer/well) and further incubated for 30 min on ice. Cells were again washed twice with 200 μl ice-cold PBS/2% FBS buffer before samples were finally resuspended in 150 μl FACS buffer and binding was measured on FACS CANTO-II HTS Module.

cynomolgus LAG3 on cells [3] = target: T4, cynomolgus LAG3 on cells; assay: flow cytometry on activated cynomolgus PBMC, 10 µg/ml (only 2nd Ab (rb): 5.26)
Description: Thus, cynomolgus peripheral blood mononuclear cells (PBMC) were prepared from fresh cynomolgus blood and were then activated by CD3/CD28 pre-treatment (1 μg/ml) for 2-3 days. […] After staining, cells were washed two times with PBS/2% FCS and analyzed on a FACS Fortessa (BD).

biotinylated-Lag3 = target: T2, biotinylated-Lag3; assay: ELISA, inhibition of biotinylated-Lag3 binding to MHC-II on A375 cells (competitor MHC-II)
Description: 25 μl/well of A375 cells (10000 cells/well) were seeded into tissue culture treated 384-well plates (Corning, 3701) and incubated at 37° C. overnight. […] After washing (1×90 μl in PBST) cells were fixed by addition of 30 μl/well glutaraldehyde to a final concentration of 0.05% (Sigma Cat.No: G5882), 10 min at room temperature. After washing (3×90 μl/well with PBST-buffer) 25 μl/well Poly-HRP40-Streptavidin (Fitzgerald, 65R-S104PHRPx) was added in a 1:2000 or 1:8000 dilution and incubated at RT for 1 h. After washing (3×90 μl/well with PBST-buffer) 25 μl/well TMB substrate (Roche, #11835033001) was added and incubated for 2 to 10 min. Measurement took place on a Tecan Safire 2 instrument at 370/492 nm.

[4] = target: T3, human Fc tagged human Lag3 extra …; assay: FACS, inhibition of biotinylated Lag3:Fc binding to MHC-II on A375 cells (competitor MHC-II); antibody 10 µg/ml
Description: This analysis was studied in a FACS competition experiment: A375 cells (ATCC, #CRL-1619) were cultured for 2-3 passages in EM Eagle's medium supplemented with EBSS (PAN, cat.no. #P04-00509), 10% FBS, 2 mM L-Glutamin, 1×NEAA and 1× Sodium Pyruvate. All antibodies, were diluted in FACS buffer to a final concentration of 20 μg/ml in 25 μl (in 96well U-bottom plates). […] A375 cells were washed with PBS and adjusted to 3×10⁶ cells/ml in PBS. 100 μl were seeded per well in a 96well V-bottom plate. Plates were centrifuged and supernatant was removed. […] After this, cells were washed with 200 μl FACS buffer. […] After staining, cells were again washed and then transferred in 150 μl FACS buffer (PBS/2% FBS) to a U-bottom plate and analyzed on a FACS Canto-II using an HTS module.
All antibodies were used at 10 μg/ml final concentration.

[5] = target: T1, LAG3 on cells (recombinant CHO cells …); assay: cell-based or functional assay

Binder | CHO-cell ELISA inflexion point [1] | % pos. (cynomolgus LAG3 on cells [2]) | GeoMean (cynomolgus LAG3 on cells [2]) | % positive cyno cells (PBLs) after CD3/CD28 activation (cynomolgus LAG3 on cells [3]) | IC50 (biotinylated-Lag3) | % Inhibition [4] | EC50 [nM] in Jurkat LAG3 + SED + Raji (NFAT luciferase), 1st assay [5] | EC50 [nM] in Jurkat LAG3 + SED + Raji (NFAT luciferase), 2nd assay [5] | EC50 [nM] in Jurkat LAG3 + SED + Raji (NFAT luciferase), 3rd assay [5]
B1 | 30.9 ng/mL | 82% | 7460 | 44.2% | 0.9 nM | 34.9% | – | – | –
B2 | 48.1 ng/mL | 81.6% | 9170 | 43% | 0.9 nM | 67.3% | 1.1 nM | 1 nM | 1.8 nM
B3 | 41.3 ng/mL | 88.6% | 11000 | 46.6% | 0.8 nM | 45.6% | 1.1 nM | 1 nM | –
B4 | 37.2 ng/mL | 67.9% | 4220 | 38.9% | 0.9 nM | 68.6% | 3.1 nM | 2.5 nM | 3.5 nM
B5 | 27.8 ng/mL | 75.9% | 7120 | 35.3% | 0.9 nM | 59.1% | 1 nM | – | –
